Laboratory results taken from publication doi:10.1101/2023.12.20.572533, “MUT-7 exoribonuclease activity and localisation are mediated by an ancient domain” (bioRxiv, 2023).
Values belong to the binder of their own block, whether it stands above or below them.

Experiments:
[1] = molecular target: T1, MUT-7^FL/MUT-8^FL complex (C. elegans, UniProt P34607 1-910; Q19672 1-578); experiment: pull-down; purified proteins (5 µM), GST-tagged MUT-16 constructs as bait on glutathione resin; 20 mM HEPES/NaOH pH 7.5, 150 mM NaCl, 10% glycerol, 0.05% IGEPAL, 2 mM DTT; 4 °C; SDS-PAGE, Coomassie; settings: both partners purified
T1 construct: C. elegans MUT-7, residues 1-910; C. elegans MUT-8 (RDE-2), residues 1-578; also called MUT-7/MUT-8; full-length MUT-7/MUT-8; source: E. coli BL21(DE3) derivative, co-expressed and purified as a complex through several chromatographic steps
T1 sequence (looked up) 1: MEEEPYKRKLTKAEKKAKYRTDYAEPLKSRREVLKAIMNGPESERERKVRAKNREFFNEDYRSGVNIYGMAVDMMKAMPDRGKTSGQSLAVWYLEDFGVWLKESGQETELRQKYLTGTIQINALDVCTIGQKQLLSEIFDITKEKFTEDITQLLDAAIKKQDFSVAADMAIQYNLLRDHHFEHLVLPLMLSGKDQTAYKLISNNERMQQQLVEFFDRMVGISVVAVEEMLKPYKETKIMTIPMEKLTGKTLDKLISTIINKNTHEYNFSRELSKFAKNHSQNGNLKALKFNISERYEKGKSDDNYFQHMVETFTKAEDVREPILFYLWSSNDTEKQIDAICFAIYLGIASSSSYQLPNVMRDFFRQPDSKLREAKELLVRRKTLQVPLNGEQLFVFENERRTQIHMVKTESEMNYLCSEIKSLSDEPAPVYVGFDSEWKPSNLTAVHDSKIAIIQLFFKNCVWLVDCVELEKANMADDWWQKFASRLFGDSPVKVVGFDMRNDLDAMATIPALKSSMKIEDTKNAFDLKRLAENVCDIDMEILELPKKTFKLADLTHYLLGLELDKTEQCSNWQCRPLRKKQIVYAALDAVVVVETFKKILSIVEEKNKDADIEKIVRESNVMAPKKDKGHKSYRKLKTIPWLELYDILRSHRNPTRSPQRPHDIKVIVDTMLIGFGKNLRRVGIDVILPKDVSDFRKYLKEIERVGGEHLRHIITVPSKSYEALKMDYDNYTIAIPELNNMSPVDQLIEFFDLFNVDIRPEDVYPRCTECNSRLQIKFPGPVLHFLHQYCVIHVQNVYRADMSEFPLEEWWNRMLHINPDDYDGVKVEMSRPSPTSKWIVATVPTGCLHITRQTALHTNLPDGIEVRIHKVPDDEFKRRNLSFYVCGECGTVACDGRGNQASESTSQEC
T1 sequence (looked up) 2: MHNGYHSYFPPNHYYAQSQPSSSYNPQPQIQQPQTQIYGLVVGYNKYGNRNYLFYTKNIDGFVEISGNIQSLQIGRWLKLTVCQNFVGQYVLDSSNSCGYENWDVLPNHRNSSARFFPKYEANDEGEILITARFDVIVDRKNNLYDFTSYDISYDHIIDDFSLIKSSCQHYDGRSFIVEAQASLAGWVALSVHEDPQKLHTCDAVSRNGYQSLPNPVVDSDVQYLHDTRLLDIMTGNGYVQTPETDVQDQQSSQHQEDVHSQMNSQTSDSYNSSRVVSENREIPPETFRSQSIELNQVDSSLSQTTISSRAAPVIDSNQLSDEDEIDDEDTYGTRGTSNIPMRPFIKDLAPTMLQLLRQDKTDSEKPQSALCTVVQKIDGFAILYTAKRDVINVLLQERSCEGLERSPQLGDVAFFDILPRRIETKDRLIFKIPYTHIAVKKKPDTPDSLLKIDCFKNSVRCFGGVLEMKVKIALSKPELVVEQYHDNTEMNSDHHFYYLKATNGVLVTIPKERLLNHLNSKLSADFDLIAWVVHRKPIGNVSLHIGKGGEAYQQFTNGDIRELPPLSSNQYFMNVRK

[2] = molecular target: T2, MUT-7FL/MUT-8CTD chain MUT-7FL;MUT-8CTD (Caenorhabditis elegans;Caenorhabditis …, UniProt P34607;Q19672 1-910;322-578, |); experiment: fluorescence polarisation; 50 mM KCl, 5 mM EDTA; FP: 50 nM RNA, 20 mM HEPES/NaOH pH 7.5, 50 mM KCl, 5 mM EDTA (C. elegans) or 250 mM NaCl (human EXD3 and MUT-7 D435A), room temperature, 30 min; settings: protein: recombinant;recombinant; copies: 1;1; label: 5'-FAM; single strand
T2 sequence 1: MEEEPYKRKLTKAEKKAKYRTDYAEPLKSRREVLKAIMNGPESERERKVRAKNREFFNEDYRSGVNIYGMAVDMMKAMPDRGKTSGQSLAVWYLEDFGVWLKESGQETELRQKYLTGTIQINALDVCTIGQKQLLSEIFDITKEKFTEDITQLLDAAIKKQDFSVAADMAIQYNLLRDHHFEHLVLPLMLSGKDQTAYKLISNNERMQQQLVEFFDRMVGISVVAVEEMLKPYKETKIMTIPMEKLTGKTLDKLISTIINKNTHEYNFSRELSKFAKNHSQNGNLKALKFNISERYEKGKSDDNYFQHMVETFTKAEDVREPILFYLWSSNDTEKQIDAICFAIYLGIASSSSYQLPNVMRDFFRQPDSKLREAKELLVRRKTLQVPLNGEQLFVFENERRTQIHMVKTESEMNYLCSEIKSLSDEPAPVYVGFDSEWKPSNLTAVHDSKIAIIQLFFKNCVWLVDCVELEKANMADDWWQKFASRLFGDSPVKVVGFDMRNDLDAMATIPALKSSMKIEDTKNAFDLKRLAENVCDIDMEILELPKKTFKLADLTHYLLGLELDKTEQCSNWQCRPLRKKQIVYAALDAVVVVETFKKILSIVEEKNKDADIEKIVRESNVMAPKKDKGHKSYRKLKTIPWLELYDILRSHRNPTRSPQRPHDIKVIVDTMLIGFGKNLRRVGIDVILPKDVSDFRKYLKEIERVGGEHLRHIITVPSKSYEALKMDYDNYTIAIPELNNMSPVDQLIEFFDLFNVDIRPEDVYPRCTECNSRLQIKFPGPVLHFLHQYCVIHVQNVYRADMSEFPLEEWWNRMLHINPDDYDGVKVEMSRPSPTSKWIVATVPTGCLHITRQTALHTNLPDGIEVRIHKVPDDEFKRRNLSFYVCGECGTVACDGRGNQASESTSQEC
T2 sequence 2: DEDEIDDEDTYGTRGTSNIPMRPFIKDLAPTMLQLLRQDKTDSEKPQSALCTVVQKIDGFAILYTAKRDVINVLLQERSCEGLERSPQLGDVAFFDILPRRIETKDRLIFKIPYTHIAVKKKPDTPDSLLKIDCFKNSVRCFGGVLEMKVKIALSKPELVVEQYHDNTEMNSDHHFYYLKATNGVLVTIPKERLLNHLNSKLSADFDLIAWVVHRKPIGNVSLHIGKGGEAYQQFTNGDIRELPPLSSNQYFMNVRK

[3] = molecular target: T3, MUT-8^NTD (1-235), purified (C. elegans, UniProt Q19672 1-235); experiment: ITC; cell 46 µM MUT-8^NTD, syringe 600 µM MUT-16^584-724; 20 °C; 25 mM Tris/HCl pH 7.5, 150 mM NaCl, 0.25 mM TCEP; 19 injections of 2 µL; mean of three experiments; settings: both partners purified
T3 construct: C. elegans MUT-8 N-terminal domain construct, residues 1-235
T3 sequence (looked up): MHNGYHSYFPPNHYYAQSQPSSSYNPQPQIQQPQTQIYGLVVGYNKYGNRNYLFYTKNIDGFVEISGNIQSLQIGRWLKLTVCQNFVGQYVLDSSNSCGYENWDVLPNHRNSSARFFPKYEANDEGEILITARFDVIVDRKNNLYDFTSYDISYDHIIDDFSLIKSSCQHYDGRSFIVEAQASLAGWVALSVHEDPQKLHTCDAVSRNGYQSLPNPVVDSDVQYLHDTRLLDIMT

- binding result [1]: binds
B1: GST-tagged MUT-16^1-724 (domain or fragment, C. elegans, UniProt O62011 1-724, looked up)
chain: MSESDDDYPELDISDQYIDPLGIVVGPPPASYTETDREETPMQNRTEDDTNSYGNSSGEHDYDSYLDSGDDDFDVDAYYANDNMDEPPPETIPDNLIQNVIGRNDNADYDFSDASNPEIMKRDLQLFLSSSLLSNPLKFRSGYSSDELDDCLKSCMGYSLQVTAVLLLPPEIISQLPNDSKTEHAHALVRGGWLQSKEGAFFPVISDSERETVVSLMNGSEEQHKRQERKKKEADTFESEEKEIRTLLTFNMIAELLMAVRNEYSIRSVKYQILSTAYTNMVTGAAHANIFRKYKDILQLDPEKLWNNDWFKEYTNRGTLKKFLTTARFSEIVVSQANGKTVELYFRADDEGNRPVVLFTDEHIADVRNKWKTGNQRNQNYGSQGNYRAGGQRSDDRRGPQQRRNVIVPDPNYQPSTFAGGISNNADDDGSLQPTTSSHFNRNTDRSTSRPPRAPTSPVNRVMETDPLMGQGTSSGAPQRSAIPNPFGGAPALSRSTITNGNRGPSYGDRGERVQDVGDTTSDSEITSEGSYSDEDPEQKEIKRQRRKDKLKKKQERELRSREKHTKSKQQPPSKIETRFNTYKKKSESSATDTSNTPPVDTVNVALPTPVVESSSTTAAPSIPVSTRPEVVVPPENPAPLREVGNFYSKSNHDEDRRNVQLPFTPADTHKPIKVAPKEPVRNPLLKERPSANGFINRRLPSHPAPPPVNQSQPANQPMQTAVY
notes: source: E. coli BL21(DE3) derivative, purified as GST-tagged fusion protein

Binder: GUUGAUUGAAGAGUUC (ssRNA) [16-mer ssRNA]
- Kd [2]: 0.17 µM

- Kd [3]: ~13 µM
B2: MUT-16^584-724, purified (SEC, ITC) (domain or fragment, C. elegans, UniProt O62011 584-724, looked up)
chain: KKKSESSATDTSNTPPVDTVNVALPTPVVESSSTTAAPSIPVSTRPEVVVPPENPAPLREVGNFYSKSNHDEDRRNVQLPFTPADTHKPIKVAPKEPVRNPLLKERPSANGFINRRLPSHPAPPPVNQSQPANQPMQTAVY
notes: source: E. coli BL21(DE3) derivative, purified (alone, or co-expressed with MUT-8^NTD and purified as a complex)
